The results in this text go back to publication PMC8605023 (Nature Communications, 2021).

As a reminder, the IC50 is the concentration needed to halve the response being measured. Usually Ki stands for the dissociation constant of the complex between target and ligand, obtained from inhibition or displacement. A higher Ki goes with weaker binding.

Conditions in all cases: both partners purified
One experiment deals with T1, Radixin FERM domain (human, UniProt P35241 5-295).
T1 construct: also called RDX
T1 sequence (P35241 5-295): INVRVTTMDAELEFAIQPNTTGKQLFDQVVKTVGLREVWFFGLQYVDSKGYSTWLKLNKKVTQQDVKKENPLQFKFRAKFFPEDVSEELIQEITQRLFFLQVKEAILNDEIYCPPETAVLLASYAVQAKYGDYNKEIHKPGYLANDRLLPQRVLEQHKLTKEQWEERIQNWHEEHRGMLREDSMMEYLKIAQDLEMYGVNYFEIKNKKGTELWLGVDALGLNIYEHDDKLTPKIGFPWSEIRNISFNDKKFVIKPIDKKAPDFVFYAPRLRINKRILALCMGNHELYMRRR

The next experiment has as its target Ezrin FERM domain (human, UniProt P15311 2-296).
For a further experiment, the target named is T2, G3BP2 NTF2 domain (human, UniProt Q9UN86 11-133).
T2 sequence (looked up): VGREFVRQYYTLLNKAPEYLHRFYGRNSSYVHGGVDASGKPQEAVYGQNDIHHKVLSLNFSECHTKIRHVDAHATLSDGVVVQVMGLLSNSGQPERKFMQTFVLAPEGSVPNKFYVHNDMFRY

Chain of Ezrin FERM domain (P15311 2-296): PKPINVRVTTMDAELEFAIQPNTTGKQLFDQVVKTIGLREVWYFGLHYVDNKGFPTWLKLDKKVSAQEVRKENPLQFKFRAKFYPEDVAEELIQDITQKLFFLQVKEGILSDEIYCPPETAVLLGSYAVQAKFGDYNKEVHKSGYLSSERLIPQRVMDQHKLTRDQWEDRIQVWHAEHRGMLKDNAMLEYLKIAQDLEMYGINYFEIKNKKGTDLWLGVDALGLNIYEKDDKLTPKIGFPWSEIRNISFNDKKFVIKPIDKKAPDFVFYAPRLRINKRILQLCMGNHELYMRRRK

VETSNSFDVLKSEDAQY [NSP3 peptide 2019-2034 (Sars-CoV2)] came in with an IC50 in the experiment with Radixin FERM domain of 1530 µM. In the experiment with Ezrin FERM domain, this molecule gave an IC50 of 1530 µM and an inhibition constant (Ki) of 37.6 µM.
In the experiment with G3BP2 NTF2 domain, QGKPLEFGATSAALQY [NSP3 peptide 956-971 (Sars-CoV2)] showed an IC50 of 100 µM and a Ki of 35 µM.
